# Positions of bridges follow the written chain, without caps; N, C: chain ends. Non-standard residues stand in square brackets, D forms with d. No end group written: not given here. Aib = CC(C)(N)C(=O)O
# How the values were obtained:
# Type in all cases: cell-based
# [1] = target: T1, human GIP receptor (Homo sapiens, UniProt P48546); assay: In vitro cAMP activity (LANCE cAMP kit) in CHO cells expressing human GIP receptor, relative to human GIP; conditions: long-acting conjugates, relative potency from cAMP EC50 compared to human GIP
# T1 construct: expressed in transfected cells; host or cells: Chinese hamster ovary (CHO)
# T1 sequence (P48546 22-466): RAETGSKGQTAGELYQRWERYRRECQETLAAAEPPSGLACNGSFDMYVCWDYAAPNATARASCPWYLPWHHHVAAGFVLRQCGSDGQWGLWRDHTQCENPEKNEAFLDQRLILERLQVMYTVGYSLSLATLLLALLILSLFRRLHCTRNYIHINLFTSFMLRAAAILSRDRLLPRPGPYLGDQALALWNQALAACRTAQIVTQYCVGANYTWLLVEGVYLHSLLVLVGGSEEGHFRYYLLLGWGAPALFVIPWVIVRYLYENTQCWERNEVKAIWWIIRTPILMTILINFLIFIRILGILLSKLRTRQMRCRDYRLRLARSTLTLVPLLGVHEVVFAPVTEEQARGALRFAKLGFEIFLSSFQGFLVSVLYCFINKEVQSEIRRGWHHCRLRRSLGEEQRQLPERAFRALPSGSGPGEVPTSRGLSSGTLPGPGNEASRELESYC
# Description: (§1) The activities of the triple agonists and long-acting conjugates thereof prepared in Examples 1 and 2 were measured by a method of measuring in vitro cellular activities using cell lines, where a GLP-1 receptor, a glucagon (GCG) receptor, and a GIP receptor are transformed, respectively.
# (§2) Each of the cell lines above is one in which the genes for human GLP-1 receptor, human GCG receptor, and human GIP receptor were transformed in Chinese hamster ovary (CHO), respectively, and can be expressed therein, and is thus suitable for the measurement of the activities of GLP-1, GCG, and GIP. Accordingly, the activity for each part was measured using the respective transformed cell line.
# (§3) For the measurement of the GIP activities of the triple agonists and long-acting conjugates prepared in Examples 1 and 2, human GIP was subjected to a 4-fold serial dilution from 50 nM to 0.000048 nM, and the triple agonists and long-acting conjugates thereof prepared in Examples 1 and 2 were subjected to a 4-fold serial dilution from 400 nM to 0.00038 nM. The culture solution was removed from the cultured CHO cells, in which the human GIP receptor was expressed, and each of the serially-diluted materials was added to the CHO cells in an amount of 5 μL, respectively. Then, a buffer solution containing cAMP antibody was added thereto in an amount of 5 μL and cultured at room temperature for 15 minutes. Then, a detection mix containing a cell lysis buffer was added thereto in an amount of 10 μL for the lysis of the cells and reacted at room temperature for 90 minutes. The cell lysates, upon completion of the reaction, were applied to LANCE cAMP kit (PerkinElmer, USA) to calculate the EC50 value via accumulated cAMP, and the values were compared with each other.
# [2] = target: T2, human GLP-1 receptor (Homo sapiens, UniProt P43220); assay: In vitro cAMP activity (LANCE cAMP kit) in CHO cells expressing human GLP-1 receptor, relative to human GLP-1; conditions: long-acting conjugates; relative potency from cAMP EC50 compared to human GLP-1, CHO cells
# T2 construct: expressed in transfected cells; host or cells: Chinese hamster ovary (CHO)
# T2 sequence (P43220 24-463): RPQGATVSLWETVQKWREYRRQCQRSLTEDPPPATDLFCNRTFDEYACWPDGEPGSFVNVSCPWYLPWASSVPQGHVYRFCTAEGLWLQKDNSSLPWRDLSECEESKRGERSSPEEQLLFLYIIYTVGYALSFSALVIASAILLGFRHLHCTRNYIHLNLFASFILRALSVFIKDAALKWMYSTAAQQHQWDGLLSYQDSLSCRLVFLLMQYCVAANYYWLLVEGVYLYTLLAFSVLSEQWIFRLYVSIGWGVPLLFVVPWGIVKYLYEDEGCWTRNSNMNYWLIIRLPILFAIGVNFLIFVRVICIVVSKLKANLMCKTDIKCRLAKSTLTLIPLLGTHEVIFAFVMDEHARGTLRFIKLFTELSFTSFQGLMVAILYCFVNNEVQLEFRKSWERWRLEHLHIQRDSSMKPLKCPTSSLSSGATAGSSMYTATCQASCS
# Description: as §1, §2
# as §3, with “GLP-1” for “GIP”
# [3] = target: T3, human GCG receptor (Homo sapiens, UniProt P47871); assay: In vitro cAMP activity (LANCE cAMP kit) in CHO cells expressing human GCG receptor, relative to human GCG; conditions: long-acting conjugates, relative potency from cAMP EC50 compared to human GCG
# T3 construct: expressed in transfected cells; host or cells: Chinese hamster ovary (CHO)
# T3 sequence (P47871 26-477): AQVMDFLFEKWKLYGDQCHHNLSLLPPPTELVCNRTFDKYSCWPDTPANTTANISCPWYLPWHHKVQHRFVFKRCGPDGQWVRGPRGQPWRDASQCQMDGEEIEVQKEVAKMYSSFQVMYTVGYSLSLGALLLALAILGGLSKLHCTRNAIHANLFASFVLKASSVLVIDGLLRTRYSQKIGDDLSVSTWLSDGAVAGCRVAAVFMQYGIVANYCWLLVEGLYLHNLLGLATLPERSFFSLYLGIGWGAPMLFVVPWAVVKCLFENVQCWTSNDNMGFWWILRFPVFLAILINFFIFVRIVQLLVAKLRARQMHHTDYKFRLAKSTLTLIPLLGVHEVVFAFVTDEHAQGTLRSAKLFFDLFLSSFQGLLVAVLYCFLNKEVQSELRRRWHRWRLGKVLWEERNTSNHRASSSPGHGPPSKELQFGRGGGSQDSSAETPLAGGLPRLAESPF
# Description: as §1, §2
# as §3, with “GCG” for “GIP”
Substance,In vitro activity compared to native peptide (%) vs. GIP [1],In vitro activity compared to native peptide (%) vs. GLP-1 [2],In vitro activity compared to native peptide (%) vs. Glucagon [3]
21 (Y[Aib]QGTFTSDYSKYLDECRAKEFVQWLLDHHPSSGQPPPS; bridge 16-20) [compound 21],0.2%,0.1%,1.6%
96 (Y[Aib]QGTFTSDYSKYLDEKRAKEFVQWLLDHCPSSGQPPPS; bridge 16-20) [compound 96],0.3%,0.3%,4.0%
22 (Y[Aib]QGTFTSDYSKCLDEKRAKEFVQWLLDHHPSSGQPPPS; bridge 16-20) [compound 22],0.5%,0.1%,0.9%
77 (Y[Aib]QGTFTSDYSKYLDEKAAKDFVQWLLDHHPSSGQPPPSC; bridge 16-20) [compound 77],6.6%,6.7%,1.7%
50 (H[Aib]QGTFTSDYSKYLDEKRAKEFVQWLLDHHPSSGQPPPSC; bridge 16-20) [compound 50],0.7%,15.4%,6.9%
42 (Y[Aib]QGTFTSDYSKYLDEKRAKEFVQWLLDHHPSSGQPPPSC; bridge 16-20) [compound 42],1.2%,3.1%,23.1%
43 (Y[Aib]QGTFTSDYSKYLDEKRAKEFVQWLLDHHCSSGQPPPS; bridge 16-20) [compound 43],0.6%,2.1%,13.5%

# Reference: patent publication US10981967B2, “Long-acting conjugate of triple glucagon/GLP-1/GIP receptor agonist” (HANMI PHARM. CO., LTD., priority 2015, dated 2021)
